Experimental findings from patent publication US20250161440A1 (ABCENTRA, published 2025) are described below.

In the assay the target is oxidized LDL (oxLDL) (UniProt P04114 28-4563, limits assumed, oxidized); the kind of oxidation used in the in vitro assay is not stated (the filing says in general that oxidized LDL may carry malondialdehyde groups on lysines and histidines, or be oxidized by …). In words: cell-based or functional assay.
oxidized LDL (oxLDL), sequence (P04114 28-4563 limits assumed): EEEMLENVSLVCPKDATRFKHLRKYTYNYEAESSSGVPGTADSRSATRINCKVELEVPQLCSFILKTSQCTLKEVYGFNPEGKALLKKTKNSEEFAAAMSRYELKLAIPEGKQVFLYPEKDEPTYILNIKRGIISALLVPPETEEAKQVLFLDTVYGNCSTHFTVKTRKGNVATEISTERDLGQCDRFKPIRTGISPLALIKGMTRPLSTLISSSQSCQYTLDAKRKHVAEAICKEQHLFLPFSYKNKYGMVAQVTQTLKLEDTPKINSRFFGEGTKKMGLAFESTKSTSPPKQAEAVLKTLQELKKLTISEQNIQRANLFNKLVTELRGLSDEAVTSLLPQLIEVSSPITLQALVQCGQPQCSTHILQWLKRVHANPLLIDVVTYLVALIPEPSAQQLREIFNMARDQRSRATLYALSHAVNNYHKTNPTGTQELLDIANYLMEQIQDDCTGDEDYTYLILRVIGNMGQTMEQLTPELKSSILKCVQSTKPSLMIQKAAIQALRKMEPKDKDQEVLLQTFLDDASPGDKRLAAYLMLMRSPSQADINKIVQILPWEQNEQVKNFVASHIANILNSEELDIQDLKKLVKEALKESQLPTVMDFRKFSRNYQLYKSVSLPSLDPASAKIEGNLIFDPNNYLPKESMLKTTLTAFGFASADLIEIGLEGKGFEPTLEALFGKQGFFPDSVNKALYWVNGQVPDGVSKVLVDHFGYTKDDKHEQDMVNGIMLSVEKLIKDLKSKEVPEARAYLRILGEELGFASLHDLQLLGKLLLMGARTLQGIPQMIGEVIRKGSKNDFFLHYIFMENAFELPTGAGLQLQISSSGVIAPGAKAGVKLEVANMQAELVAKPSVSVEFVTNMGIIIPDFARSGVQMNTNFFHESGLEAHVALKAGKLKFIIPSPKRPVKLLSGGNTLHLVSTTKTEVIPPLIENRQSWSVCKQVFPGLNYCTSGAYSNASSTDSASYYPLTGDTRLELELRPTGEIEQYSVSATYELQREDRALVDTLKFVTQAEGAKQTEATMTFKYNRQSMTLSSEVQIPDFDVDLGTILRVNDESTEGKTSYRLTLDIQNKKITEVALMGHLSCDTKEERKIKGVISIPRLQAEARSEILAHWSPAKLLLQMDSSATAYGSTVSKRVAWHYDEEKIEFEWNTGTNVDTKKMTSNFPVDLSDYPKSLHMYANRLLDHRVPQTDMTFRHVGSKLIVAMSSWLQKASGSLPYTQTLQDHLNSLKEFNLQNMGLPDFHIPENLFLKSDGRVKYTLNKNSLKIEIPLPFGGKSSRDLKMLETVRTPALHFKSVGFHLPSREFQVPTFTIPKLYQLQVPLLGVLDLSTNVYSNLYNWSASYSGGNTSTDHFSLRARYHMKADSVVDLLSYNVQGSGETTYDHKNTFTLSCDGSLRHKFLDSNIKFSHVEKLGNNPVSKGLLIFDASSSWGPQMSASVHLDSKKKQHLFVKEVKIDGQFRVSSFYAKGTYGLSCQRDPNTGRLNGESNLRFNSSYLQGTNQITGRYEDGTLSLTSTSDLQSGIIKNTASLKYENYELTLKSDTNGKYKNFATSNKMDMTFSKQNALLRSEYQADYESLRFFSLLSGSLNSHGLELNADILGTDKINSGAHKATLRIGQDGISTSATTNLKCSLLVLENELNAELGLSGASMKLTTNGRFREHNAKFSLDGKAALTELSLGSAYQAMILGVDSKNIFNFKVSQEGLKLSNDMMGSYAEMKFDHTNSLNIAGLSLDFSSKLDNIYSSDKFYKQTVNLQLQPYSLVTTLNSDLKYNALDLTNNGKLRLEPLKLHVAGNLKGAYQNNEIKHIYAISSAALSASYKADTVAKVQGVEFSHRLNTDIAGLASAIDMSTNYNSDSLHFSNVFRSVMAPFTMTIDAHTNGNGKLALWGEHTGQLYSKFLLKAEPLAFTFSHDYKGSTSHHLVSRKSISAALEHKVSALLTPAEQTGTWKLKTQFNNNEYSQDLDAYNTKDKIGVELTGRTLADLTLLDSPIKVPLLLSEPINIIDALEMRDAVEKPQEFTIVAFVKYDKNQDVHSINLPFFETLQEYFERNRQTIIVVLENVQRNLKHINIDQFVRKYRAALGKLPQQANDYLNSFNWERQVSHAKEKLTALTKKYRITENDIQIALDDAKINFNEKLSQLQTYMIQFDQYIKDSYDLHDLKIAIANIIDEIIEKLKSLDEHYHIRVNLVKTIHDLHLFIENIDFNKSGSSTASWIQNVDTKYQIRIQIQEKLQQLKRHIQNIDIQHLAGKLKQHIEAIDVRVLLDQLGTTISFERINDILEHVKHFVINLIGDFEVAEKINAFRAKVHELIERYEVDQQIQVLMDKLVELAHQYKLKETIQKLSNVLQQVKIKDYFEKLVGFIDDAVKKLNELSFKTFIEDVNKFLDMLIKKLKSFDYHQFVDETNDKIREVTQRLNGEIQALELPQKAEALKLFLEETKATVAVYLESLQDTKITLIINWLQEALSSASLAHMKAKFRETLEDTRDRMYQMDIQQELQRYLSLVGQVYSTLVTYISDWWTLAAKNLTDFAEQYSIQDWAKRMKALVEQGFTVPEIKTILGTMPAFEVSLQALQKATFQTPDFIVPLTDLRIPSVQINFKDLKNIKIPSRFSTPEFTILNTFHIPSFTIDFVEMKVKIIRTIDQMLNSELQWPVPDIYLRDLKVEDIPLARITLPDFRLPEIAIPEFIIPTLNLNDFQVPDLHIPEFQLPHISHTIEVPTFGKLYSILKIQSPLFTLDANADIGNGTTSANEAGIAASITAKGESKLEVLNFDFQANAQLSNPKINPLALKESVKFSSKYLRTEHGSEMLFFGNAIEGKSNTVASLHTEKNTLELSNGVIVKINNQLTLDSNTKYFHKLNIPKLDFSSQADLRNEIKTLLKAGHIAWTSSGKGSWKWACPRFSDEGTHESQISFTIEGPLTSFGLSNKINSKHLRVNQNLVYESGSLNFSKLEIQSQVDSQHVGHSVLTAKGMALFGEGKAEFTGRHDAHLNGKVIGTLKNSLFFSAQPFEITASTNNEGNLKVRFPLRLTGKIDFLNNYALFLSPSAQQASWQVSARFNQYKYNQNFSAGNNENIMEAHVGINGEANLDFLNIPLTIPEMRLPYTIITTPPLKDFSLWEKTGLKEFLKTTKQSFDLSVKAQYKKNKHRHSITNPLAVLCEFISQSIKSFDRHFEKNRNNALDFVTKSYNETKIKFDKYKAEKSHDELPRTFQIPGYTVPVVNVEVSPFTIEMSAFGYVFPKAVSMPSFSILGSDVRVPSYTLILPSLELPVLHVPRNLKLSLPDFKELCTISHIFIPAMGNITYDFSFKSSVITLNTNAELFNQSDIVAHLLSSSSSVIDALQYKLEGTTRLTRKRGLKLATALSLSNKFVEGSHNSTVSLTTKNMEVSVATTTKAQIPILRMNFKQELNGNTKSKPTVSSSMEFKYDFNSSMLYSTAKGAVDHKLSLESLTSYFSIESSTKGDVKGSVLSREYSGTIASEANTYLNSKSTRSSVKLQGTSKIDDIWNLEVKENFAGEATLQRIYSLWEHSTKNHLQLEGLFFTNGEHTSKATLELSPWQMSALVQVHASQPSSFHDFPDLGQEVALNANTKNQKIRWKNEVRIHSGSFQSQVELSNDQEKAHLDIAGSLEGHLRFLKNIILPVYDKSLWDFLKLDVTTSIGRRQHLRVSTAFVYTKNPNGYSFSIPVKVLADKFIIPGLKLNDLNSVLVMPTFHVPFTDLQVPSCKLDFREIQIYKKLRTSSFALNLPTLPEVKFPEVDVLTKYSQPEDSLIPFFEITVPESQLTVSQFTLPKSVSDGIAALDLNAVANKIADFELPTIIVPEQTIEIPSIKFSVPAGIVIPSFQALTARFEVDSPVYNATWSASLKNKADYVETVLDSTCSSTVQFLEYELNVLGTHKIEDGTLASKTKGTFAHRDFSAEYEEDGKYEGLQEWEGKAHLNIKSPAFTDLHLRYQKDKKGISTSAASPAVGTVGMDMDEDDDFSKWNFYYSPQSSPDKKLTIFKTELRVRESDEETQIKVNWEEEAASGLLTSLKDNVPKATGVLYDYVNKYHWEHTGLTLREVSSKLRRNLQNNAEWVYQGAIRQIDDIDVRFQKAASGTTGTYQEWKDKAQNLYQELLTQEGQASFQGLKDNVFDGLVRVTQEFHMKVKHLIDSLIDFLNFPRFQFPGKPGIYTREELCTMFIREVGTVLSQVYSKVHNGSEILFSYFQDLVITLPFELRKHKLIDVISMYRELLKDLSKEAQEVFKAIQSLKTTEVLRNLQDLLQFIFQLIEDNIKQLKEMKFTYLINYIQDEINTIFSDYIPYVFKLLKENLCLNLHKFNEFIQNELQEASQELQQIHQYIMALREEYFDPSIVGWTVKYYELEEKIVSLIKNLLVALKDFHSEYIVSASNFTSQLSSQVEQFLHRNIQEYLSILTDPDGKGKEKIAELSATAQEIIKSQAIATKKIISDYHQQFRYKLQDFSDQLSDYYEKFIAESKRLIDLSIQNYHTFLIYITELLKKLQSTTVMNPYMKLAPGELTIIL

B1: orticumab (antibody, human IgG1, lambda, V domains shown)
VH: EVQLLESGGGLVQPGGSLRLSCAASGFTFSNAWMSWVRQAPGKGLEWVSSISVGGHRTYYADSVKGRSTISRDNSKNTLYLQMNSLRAEDTAVYYCARIRVGPSGGAFDYWGQGTLVTVSS
VL: QSVLTQPPSASGTPGQRVTISCSGSNTNIGKNYVSWYQQLPGTAPKLLIYANSNRPSGVPDRFSGSKSGTSASLAISGLRSEDEADYYCASWDASLNGWVFGGGTKLTVLG
For the molecule B1, the “IC50 for MCP-1 inhibition” value was around 10 nM.
